According to patent US10047131B2, “Peptides and combination of peptides for use in immunotherapy against ovarian cancer and other cancers” (immatics biotechnologies GmbH, priority 2015, dated 2018):

target: HLA-A*02:01 (Homo sapiens, UniProt P04439, D140Y/D185E/D98H/E176V/E277Q/G131W/G231S/I119V/I121R/I166T/I218V/L300P/L318F/N151K/N90K/P208A/P217A/Q86G/Q94H/R138H/R169H/T345S); test: MHC binding assay (UV-ligand exchange, ELISA of exchange yield); details: binding to HLA-A*02:01, UV-ligand exchange
Summary of the method: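 ELISA of β2m retained on streptavidin-captured, 100-fold diluted complexes (HRP anti-β2m, TMB, 450 nm) gives the yield. Complexes come from UV-triggered exchange of a photocleavable placeholder peptide for the candidate, which must bind to stop complex dissociation.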

| Substance | Peptide exchange (MHC class I binding score, peptide exchange yield) |
| --- | --- |
| 562 (YLEELPEKLKL; listed as Homo sapiens) [compound 562] | “+++” (≥50 = +++) |
| 564 (TVTNAVVTV; listed as Homo sapiens) [compound 564] | “+++” (≥50 = +++) |
| 565 (ALQETPTSV; listed as Homo sapiens) [compound 565] | “++” (≥20% = ++) |
| 566 (VIADGGIQNV; listed as Homo sapiens) [compound 566] | “++” (≥20% = ++) |
| 567 (SLLPLDDIVRV; listed as Homo sapiens) [compound 567] | “+++” (≥50 = +++) |
| 568 (TLYDIAHTPGV; listed as Homo sapiens) [compound 568] | “++++” (≥75% = ++++) |
| 569 (KLVDRTWTL; listed as Homo sapiens) [compound 569] | “+++” (≥50 = +++) |
| 570 (ALANQIPTV; listed as Homo sapiens) [compound 570] | “++” (≥20% = ++) |
| 573 (ILVANAIVGV; listed as Homo sapiens) [compound 573] | “+++” (≥50 = +++) |
| 576 (ILLNNSGQIKL; listed as Homo sapiens) [compound 576] | “++++” (≥75% = ++++) |
| 577 (VMFEDGVLMRL; listed as Homo sapiens) [compound 577] | “+++” (≥50 = +++) |
| 579 (NLMEMVAQL; listed as Homo sapiens) [compound 579] | “++” (≥20% = ++) |
| 582 (TLCDVILMV; listed as Homo sapiens) [compound 582] | “+++” (≥50 = +++) |
| 586 (KLKPGDLVGV; listed as Homo sapiens) [compound 586] | “+++” (≥50 = +++) |
| 587 (VMNDRLYAI; listed as Homo sapiens) [compound 587] | “+++” (≥50 = +++) |
| 589 (KLYPQLPAEI; listed as Homo sapiens) [compound 589] | “+++” (≥50 = +++) |
| 591 (SMAELDIKL; listed as Homo sapiens) [compound 591] | “+++” (≥50 = +++) |
| 592 (RLLSAAENFL; listed as Homo sapiens) [compound 592] | “+++” (≥50 = +++) |
| 593 (GLPRFGIEMV; listed as Homo sapiens) [compound 593] | “+++” (≥50 = +++) |

| Substance | Peptide exchange (MHC class I binding score, peptide exchange yield) |
| --- | --- |
| 594 (IMLKGDNITL; listed as Homo sapiens) [compound 594] | “+++” (≥50 = +++) |
| 596 (ALLDQTKTLAESAL; listed as Homo sapiens) [compound 596] | “+++” (≥50 = +++) |
| 597 (KLLEGQVIQL; listed as Homo sapiens) [compound 597] | “+++” (≥50 = +++) |
| 598 (FLFPHSVLV; listed as Homo sapiens) [compound 598] | “+++” (≥50 = +++) |
| 602 (YLLEQIKLIEV; listed as Homo sapiens) [compound 602] | “++++” (≥75% = ++++) |
| 604 (SILDRDDIFV; listed as Homo sapiens) [compound 604] | “+++” (≥50 = +++) |
| 605 (KLYEAVPQL; listed as Homo sapiens) [compound 605] | “+++” (≥50 = +++) |
| 606 (ALWETEVYI; listed as Homo sapiens) [compound 606] | “+++” (≥50 = +++) |
| 607 (RLYSGISGLEL; listed as Homo sapiens) [compound 607] | “+++” (≥50 = +++) |
| 608 (SLLSVSHAL; listed as Homo sapiens) [compound 608] | “+++” (≥50 = +++) |
| 609 (ALWKQLLEL; listed as Homo sapiens) [compound 609] | “+++” (≥50 = +++) |
| 610 (LLAPTPYIIGV; listed as Homo sapiens) [compound 610] | “+++” (≥50 = +++) |
| 615 (VLPPDTDPA; listed as Homo sapiens) [compound 615] | “++” (≥20% = ++) |
| 616 (VLIDEVESL; listed as Homo sapiens) [compound 616] | “+++” (≥50 = +++) |
| 618 (VLFDSESIGIYV; listed as Homo sapiens) [compound 618] | “+++” (≥50 = +++) |
| 620 (KLLNKIYEA; listed as Homo sapiens) [compound 620] | “++++” (≥75% = ++++) |
| 622 (RLLGEEVVRVLQA; listed as Homo sapiens) [compound 622] | “+++” (≥50 = +++) |
| 623 (YLVEDIQHI; listed as Homo sapiens) [compound 623] | “+++” (≥50 = +++) |
| 635 (SLDSTLHAV; listed as Homo sapiens) [compound 635] | “+++” (≥50 = +++) |

The remaining lines, values ahead:

| Peptide exchange (MHC class I binding score, peptide exchange yield) | Substance |
| --- | --- |
| “+++” (≥50 = +++) | 563 (WLLPYNGVTV; listed as Homo sapiens) [compound 563] |
| “+++” (≥50 = +++) | 571 (LLLTTIPQI; listed as Homo sapiens) [compound 571] |
| “+++” (≥50 = +++) | 572 (ALADLIEKELSV; listed as Homo sapiens) [compound 572] |
| “++” (≥20% = ++) | 574 (YLLQEPPRTV; listed as Homo sapiens) [compound 574] |
| “+++” (≥50 = +++) | 575 (YLISQVEGHQV; listed as Homo sapiens) [compound 575] |
| “+++” (≥50 = +++) | 578 (FLDPGGPMMKL; listed as Homo sapiens) [compound 578] |
| “++” (≥20% = ++) | 580 (LLMENAERV; listed as Homo sapiens) [compound 580] |
| “+++” (≥50 = +++) | 583 (ILANDGVLLAA; listed as Homo sapiens) [compound 583] |
| “+++” (≥50 = +++) | 584 (ALAEVAAMENV; listed as Homo sapiens) [compound 584] |
| “++++” (≥75% = ++++) | 585 (ALWDLAADKQTL; listed as Homo sapiens) [compound 585] |
| “+++” (≥50 = +++) | 588 (SLLPLSHLV; listed as Homo sapiens) [compound 588] |
| “++” (≥20% = ++) | 590 (SLIEKLWQT; listed as Homo sapiens) [compound 590] |
| “+++” (≥50 = +++) | 595 (VLLSIYPRV; listed as Homo sapiens) [compound 595] |
| “+++” (≥50 = +++) | 599 (YLLNDASLISV; listed as Homo sapiens) [compound 599] |
| “+++” (≥50 = +++) | 600 (ALAAPDIVPAL; listed as Homo sapiens) [compound 600] |
| “+++” (≥50 = +++) | 601 (SAFPFPVTV; listed as Homo sapiens) [compound 601] |
| “++” (≥20% = ++) | 603 (FLIEPEHVNTV; listed as Homo sapiens) [compound 603] |
| “++++” (≥75% = ++++) | 611 (YLLDDGTLVV; listed as Homo sapiens) [compound 611] |
| “+++” (≥50 = +++) | 612 (YLYNEGLSV; listed as Homo sapiens) [compound 612] |
| “+++” (≥50 = +++) | 613 (RLLPPGAVVAV; listed as Homo sapiens) [compound 613] |
| “+++” (≥50 = +++) | 614 (LLLPDQPPYHL; listed as Homo sapiens) [compound 614] |
| “+++” (≥50 = +++) | 617 (ALMYESEKVGV; listed as Homo sapiens) [compound 617] |
| “+++” (≥50 = +++) | 619 (ALQDRVPLA; listed as Homo sapiens) [compound 619] |
| “++++” (≥75% = ++++) | 621 (VLMDRLPSLL; listed as Homo sapiens) [compound 621] |
